Paper PMC10681739, “High-throughput data and modeling reveal insights into the mechanisms of cooperative DNA-binding by transcription factor proteins”

T1: ETS1 (Homo sapiens, UniProt P14921)
T1 sequence: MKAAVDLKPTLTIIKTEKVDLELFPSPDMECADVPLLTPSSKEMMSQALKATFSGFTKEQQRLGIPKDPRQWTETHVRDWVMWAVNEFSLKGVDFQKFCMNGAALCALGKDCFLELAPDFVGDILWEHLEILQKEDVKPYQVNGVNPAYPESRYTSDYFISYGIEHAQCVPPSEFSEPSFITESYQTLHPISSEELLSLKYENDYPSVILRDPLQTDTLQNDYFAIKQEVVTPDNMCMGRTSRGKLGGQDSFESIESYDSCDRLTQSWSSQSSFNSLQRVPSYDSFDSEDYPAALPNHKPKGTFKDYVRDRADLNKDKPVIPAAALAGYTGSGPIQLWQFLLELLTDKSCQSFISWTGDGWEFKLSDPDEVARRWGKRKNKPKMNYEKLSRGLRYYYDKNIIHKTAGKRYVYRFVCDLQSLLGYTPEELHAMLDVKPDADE

B1: Table S2 B row 269 (dsDNA)
DNA 1: AGAAAAGGAAATGGTGGGCTGCACACCCCAGCTCAC
DNA 2: GTGAGCTGGGGTGTGCAGCCCACCATTTCCTTTTCT
B2: Table S2 B row 1406 (dsDNA)
DNA 1: GCACACACACATCCTCCCGGCCCGGCCGCCGCCGCT
DNA 2: AGCGGCGGCGGCCGGGCCGGGAGGATGTGTGTGTGC
B3: Table S2 B row 528 (dsDNA)
DNA 1: CGAACTACATCCTCTGAGGTGTAGCTTTTTGGCCTG
DNA 2: CAGGCCAAAAAGCTACACCTCAGAGGATGTAGTTCG
B4: Table S2 B row 1696 (dsDNA)
DNA 1: CTCATCAGTCATCCGGCTGGACTGCAGGAGCTCTCC
DNA 2: GGAGAGCTCCTGCAGTCCAGCCGGATGACTGATGAG
B5: Table S2 B row 1511 (dsDNA)
DNA 1: GCACCGTGGCACTTCCGCGAGCGCCGCTGGCCCTGC
DNA 2: GCAGGGCCAGCGGCGCTCGCGGAAGTGCCACGGTGC
B6: Table S2 B row 618 (dsDNA)
DNA 1: GCGCAAGGATCCGGTTTGTTCTGGTGTGGGGAGGGG
DNA 2: CCCCTCCCCACACCAGAACAAACCGGATCCTTGCGC
B7: Table S2 B row 3568 (dsDNA)
DNA 1: GAACCCCAAGTTCCGGCTGGCACTGCGCCGGAGCCT
DNA 2: AGGCTCCGGCGCAGTGCCAGCCGGAACTTGGGGTTC
B8: Table S2 B row 1905 (dsDNA)
DNA 1: ACTTCCAGGAAGCCCCATAGTCCAGAAACCTACACA
DNA 2: TGTGTAGGTTTCTGGACTATGGGGCTTCCTGGAAGT
B9: Table S2 B row 3076 (dsDNA)
DNA 1: AGGCCTCGCTTCCTCTCCTGAGCACACCCTGCAGCT
DNA 2: AGCTGCAGGGTGTGCTCAGGAGAGGAAGCGAGGCCT
B10: Table S2 B row 1755 (dsDNA)
DNA 1: CAGAAAGAGGAAATGATGCGAGTCCACACCGAAGGC
DNA 2: GCCTTCGGTGTGGACTCGCATCATTTCCTCTTTCTG
B11: Table S2 B row 1694 (dsDNA)
DNA 1: CCCTTCCTGAGGGCAAGGCGAGGGCACCTACAGCCT
DNA 2: AGGCTGTAGGTGCCCTCGCCTTGCCCTCAGGAAGGG
B12: Table S2 B row 753 (dsDNA)
DNA 1: AGGGACTTCCGGTGACCAGAGCACTAGCGCCGTAAA
DNA 2: TTTACGGCGCTAGTGCTCTGGTCACCGGAAGTCCCT
B13: Table S2 B row 3457 (dsDNA)
DNA 1: CCACTGCCGGAAGGGGAACTCTGGGGGTGCGCGAGT
DNA 2: ACTCGCGCACCCCCAGAGTTCCCCTTCCGGCAGTGG
B14: Table S2 B row 3693 (dsDNA)
DNA 1: ACCAAAACACATCCTGGGGCCCCTCACAATTAGTGA
DNA 2: TCACTAATTGTGAGGGGCCCCAGGATGTGTTTTGGT
B15: Table S2 B row 2632 (dsDNA)
DNA 1: TACGTCACTTCCGGGCCGCCGTCCTGCAGGCAAGGG
DNA 2: CCCTTGCCTGCAGGACGGCGGCCCGGAAGTGACGTA
B16: Table S2 B row 1261 (dsDNA)
DNA 1: ACTCCAGAGGAAGTGGCAAGACGAGCGCGGCAACGG
DNA 2: CCGTTGCCGCGCTCGTCTTGCCACTTCCTCTGGAGT
B17: Table S2 B row 3942 (dsDNA)
DNA 1: GAAATTTCCGCTTTCTTTCTGCAGCAGGAACCTCGG
DNA 2: CCGAGGTTCCTGCTGCAGAAAGAAAGCGGAAATTTC
B18: Table S2 B row 56 (dsDNA)
DNA 1: CAGAGAAACAGGAAGAACAGTGCTTTCAACTGAAAT
DNA 2: ATTTCAGTTGAAAGCACTGTTCTTCCTGTTTCTCTG
B19: Table S2 B row 591 (dsDNA)
DNA 1: CACCTCCTACTTCCCCCCGCTGATAACTACCAACCC
DNA 2: GGGTTGGTAGTTATCAGCGGGGGGAAGTAGGAGGTG
B20: Table S2 B row 992 (dsDNA)
DNA 1: TATCGACAAAAGTTCCGGCCCGCGGCAGCGGAGGGA
DNA 2: TCCCTCCGCTGCCGCGGGCCGGAACTTTTGTCGATA
B21: Table S2 B row 1649 (dsDNA)
DNA 1: CCCCCACATCCTGTTTGGTTAGTGGGACACCTCAAC
DNA 2: GTTGAGGTGTCCCACTAACCAAACAGGATGTGGGGG
B22: Table S2 B row 2398 (dsDNA)
DNA 1: GCTTTGCAGTTTCCTCTATGGAACACCAGACACAGT
DNA 2: ACTGTGTCTGGTGTTCCATAGAGGAAACTGCAAAGC
B23: Table S2 B row 1838 (dsDNA)
DNA 1: GTACGTTTCCTCATTGACTGGCCAACGACTATCATG
DNA 2: CATGATAGTCGTTGGCCAGTCAATGAGGAAACGTAC
B24: Table S2 B row 2348 (dsDNA)
DNA 1: CAAAAGTGCTTCCTCTCGAGGGGTTGTAGTTCTTAC
DNA 2: GTAAGAACTACAACCCCTCGAGAGGAAGCACTTTTG
B25: Table S2 B row 1819 (dsDNA)
DNA 1: CCGATTTCCCCGGACGTGGTGAGACGGCGCTTCGTC
DNA 2: GACGAAGCGCCGTCTCACCACGTCCGGGGAAATCGG
B26: Table S2 B row 1848 (dsDNA)
DNA 1: TCCCGGGGAGGAAGTGGCGAGAATTCGGGGGTGGGC
DNA 2: GCCCACCCCCGAATTCTCGCCACTTCCTCCCCGGGA
B27: Table S2 B row 1285 (dsDNA)
DNA 1: TTAAACACGGAAGTGCATCGGTTGTTGTAGTTATTC
DNA 2: GAATAACTACAACAACCGATGCACTTCCGTGTTTAA
B28: Table S2 B row 4071 (dsDNA)
DNA 1: ATGGAAATGTCGTTAAGAACTTCCTCTTTTACTAGA
DNA 2: TCTAGTAAAAGAGGAAGTTCTTAACGACATTTCCAT
B29: Table S2 B row 606 (dsDNA)
DNA 1: TCCGGAAGTCGGAGGAACACCCCAGCCGGCGCAGCC
DNA 2: GGCTGCGCCGGCTGGGGTGTTCCTCCGACTTCCGGA
B30: Table S2 B row 2614 (dsDNA)
DNA 1: GGCTTCCGCGCCTGCAGAACTACAGCTCCCAGAAGG
DNA 2: CCTTCTGGGAGCTGTAGTTCTGCAGGCGCGGAAGCC
B31: Table S2 B row 3748 (dsDNA)
DNA 1: GATTCATATCCTCCTCTATGCAACGACAGCATCTTC
DNA 2: GAAGATGCTGTCGTTGCATAGAGGAGGATATGAATC
B32: Table S2 B row 2482 (dsDNA)
DNA 1: TGCGACGGAAGCAGGAACTTGCTAACTACAAAACCC
DNA 2: GGGTTTTGTAGTTAGCAAGTTCCTGCTTCCGTCGCA

Molecular target: T1, ETS1
Assay: gcPBM; 1 nM ETS1
Details: tags: N-terminal GST (pDEST15), kept (PMC6008103); label: surface-attached array probe

| Binder | binding signal |
| --- | --- |
| B1 | 1890 PBM fluorescence, median of replicate spots |
| B2 | 2180 PBM fluorescence, median of replicate spots |
| B3 | 2040 PBM fluorescence, median of replicate spots |
| B4 | 1700 PBM fluorescence, median of replicate spots |
| B5 | 2410 PBM fluorescence, median of replicate spots |
| B6 | 2310 PBM fluorescence, median of replicate spots |
| B7 | 2450 PBM fluorescence, median of replicate spots |
| B8 | 2110 PBM fluorescence, median of replicate spots |
| B9 | 2200 PBM fluorescence, median of replicate spots |
| B10 | 2640 PBM fluorescence, median of replicate spots |
| B11 | 1830 PBM fluorescence, median of replicate spots |
| B12 | 55700 PBM fluorescence, median of replicate spots |
| B13 | 2580 PBM fluorescence, median of replicate spots |
| B14 | 2280 PBM fluorescence, median of replicate spots |
| B15 | 21800 PBM fluorescence, median of replicate spots |
| B16 | 2240 PBM fluorescence, median of replicate spots |

| Binder | binding signal |
| --- | --- |
| B17 | 21200 PBM fluorescence, median of replicate spots |
| B18 | 2500 PBM fluorescence, median of replicate spots |
| B19 | 1740 PBM fluorescence, median of replicate spots |
| B20 | 1930 PBM fluorescence, median of replicate spots |
| B21 | 23400 PBM fluorescence, median of replicate spots |
| B22 | 2540 PBM fluorescence, median of replicate spots |
| B23 | 2340 PBM fluorescence, median of replicate spots |
| B24 | 1960 PBM fluorescence, median of replicate spots |
| B25 | 1790 PBM fluorescence, median of replicate spots |
| B26 | 2460 PBM fluorescence, median of replicate spots |
| B27 | 2090 PBM fluorescence, median of replicate spots |
| B28 | 2700 PBM fluorescence, median of replicate spots |
| B29 | 2610 PBM fluorescence, median of replicate spots |
| B30 | 2000 PBM fluorescence, median of replicate spots |
| B31 | 2160 PBM fluorescence, median of replicate spots |
| B32 | 1960 PBM fluorescence, median of replicate spots |
